Consider 71 variants from the supplement of paper PMC12067230.

B1: F-6-A; numbered along this chain (parent)
chain: EASNCFAIRHFENKFAVETLICFNLFLNSQEKHY

± gives the uncertainty stated by the source.

The variants in the data set derive from B1. Kind of data set: amyloid nucleation score relative to WT ADan (yeast Sup35 reporter selection) (log enrichment difference); higher = more amyloid nucleation. On the procedure:
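Deep mutational scan of the ADan peptide fused to the Sup35 nucleation domain (SupN) in S. cerevisiae [psi-pin-], covering all single amino-acid substitutions and stop truncations (truncations = sequence up to the stop). After 24 h Cu2+ induction, cells were selected on -ADE-URA plates for 7 d at 30 °C. The nucleation score is log enrichment (output/input, deep sequencing) minus that of WT ADan, as the error-weighted mean of 3 biological replicates (DiMSum).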
In the case of EASNCAAIRHFENKFAVETLICFNLFLNSQEKHY, the amyloid nucleation score amounted to 0.0803 ± 0.13. The result for EASNCWAIRHFENKFAVETLICFNLFLNSQEKHY reads 0.168 ± 0.16; that for EASNCPAIRHFENKFAVETLICFNLFLNSQEKHY, 0.53 ± 0.16.

Regarding EASNCSAIRHFENKFAVETLICFNLFLNSQEKHY, the amyloid nucleation score stood at 0.477 ± 0.11. As for EASNCNAIRHFENKFAVETLICFNLFLNSQEKHY, the figure is 0.646 ± 0.28. The result for EASNCIAIRHFENKFAVETLICFNLFLNSQEKHY reads -0.609 ± 0.19. The result for EASNCKAIRHFENKFAVETLICFNLFLNSQEKHY reads 0.8 ± 0.17.

Consider EASNCGAIRHFENKFAVETLICFNLFLNSQEKHY, for which the amyloid nucleation score came to 0.176 ± 0.11. Consider EASNCCAIRHFENKFAVETLICFNLFLNSQEKHY, for which the amyloid nucleation score came to 0.408 ± 0.14. The result for EASNCMAIRHFENKFAVETLICFNLFLNSQEKHY reads -0.0809 ± 0.15; that for EASNCVAIRHFENKFAVETLICFNLFLNSQEKHY, -0.127 ± 0.1; that for EASNCLAIRHFENKFAVETLICFNLFLNSQEKHY, -0.5 ± 0.11. The result for EASNCRAIRHFENKFAVETLICFNLFLNSQEKHY reads 0.678 ± 0.1; that for EASNCHAIRHFENKFAVETLICFNLFLNSQEKHY, 0.563 ± 0.19. The result for EASNCEAIRHFENKFAVETLICFNLFLNSQEKHY reads 0.683 ± 0.15; that for EASNCYAIRHFENKFAVETLICFNLFLNSQEKHY, 0.351 ± 0.14. Regarding EASNCQAIRHFENKFAVETLICFNLFLNSQEKHY, the amyloid nucleation score stood at 0.362 ± 0.17. The result for EASNCDAIRHFENKFAVETLICFNLFLNSQEKHY reads 0.634 ± 0.16.

Turning to EASNPFAIRHFENKFAVETLICFNLFLNSQEKHY, the amyloid nucleation score stood at 0.685 ± 0.19. As for EASNWFAIRHFENKFAVETLICFNLFLNSQEKHY, the amyloid nucleation score is -1.36 ± 0.21. The result for EASNDFAIRHFENKFAVETLICFNLFLNSQEKHY reads 0.699 ± 0.18; that for EASNYFAIRHFENKFAVETLICFNLFLNSQEKHY, -0.00901 ± 0.15; that for EASNGFAIRHFENKFAVETLICFNLFLNSQEKHY, 0.214 ± 0.11.

Turning to EASNQFAIRHFENKFAVETLICFNLFLNSQEKHY, the amyloid nucleation score worked out at 0.396 ± 0.27. The result for EASNAFAIRHFENKFAVETLICFNLFLNSQEKHY reads 0.274 ± 0.14; that for EASNSFAIRHFENKFAVETLICFNLFLNSQEKHY, 0.0127 ± 0.12. As for EASNTFAIRHFENKFAVETLICFNLFLNSQEKHY, the amyloid nucleation score was -0.0743 ± 0.15. The result for EASNNFAIRHFENKFAVETLICFNLFLNSQEKHY reads 0.0664 ± 0.2. As for EASNVFAIRHFENKFAVETLICFNLFLNSQEKHY, the figure is -0.199 ± 0.12; as for EASNFFAIRHFENKFAVETLICFNLFLNSQEKHY, 0.0304 ± 0.15; as for EASNMFAIRHFENKFAVETLICFNLFLNSQEKHY, 0.796 ± 0.19. The result for EASNKFAIRHFENKFAVETLICFNLFLNSQEKHY reads -0.223 ± 0.21; that for EASNHFAIRHFENKFAVETLICFNLFLNSQEKHY, 0.0549 ± 0.26.

Take EASNLFAIRHFENKFAVETLICFNLFLNSQEKHY: the amyloid nucleation score was -0.0462 ± 0.12. As for EASNRFAIRHFENKFAVETLICFNLFLNSQEKHY, the figure is 0.0293 ± 0.12. Regarding EASNIFAIRHFENKFAVETLICFNLFLNSQEKHY, the amyloid nucleation score was -0.166 ± 0.15.

Consider EASNEFAIRHFENKFAVETLICFNLFLNSQEKHY, for which the amyloid nucleation score was 0.484 ± 0.21. As for EAFNCFAIRHFENKFAVETLICFNLFLNSQEKHY, the figure is -0.00261 ± 0.19; as for EATNCFAIRHFENKFAVETLICFNLFLNSQEKHY, -0.349 ± 0.21. The result for EACNCFAIRHFENKFAVETLICFNLFLNSQEKHY reads 0.601 ± 0.2; that for EAGNCFAIRHFENKFAVETLICFNLFLNSQEKHY, 0.112 ± 0.14.

With EAENCFAIRHFENKFAVETLICFNLFLNSQEKHY, the amyloid nucleation score was 0.224 ± 0.23.

On to EAANCFAIRHFENKFAVETLICFNLFLNSQEKHY, for which the amyloid nucleation score was 0.258 ± 0.18. The result for EAKNCFAIRHFENKFAVETLICFNLFLNSQEKHY reads 0.21 ± 0.27. As for EARNCFAIRHFENKFAVETLICFNLFLNSQEKHY, the amyloid nucleation score was -0.46 ± 0.17. As for EAINCFAIRHFENKFAVETLICFNLFLNSQEKHY, the figure is -1.1 ± 0.23. As to EALNCFAIRHFENKFAVETLICFNLFLNSQEKHY, the amyloid nucleation score was -0.738 ± 0.16.

With EAMNCFAIRHFENKFAVETLICFNLFLNSQEKHY, the amyloid nucleation score stood at 0.163 ± 0.25. Consider EAYNCFAIRHFENKFAVETLICFNLFLNSQEKHY, for which the amyloid nucleation score turned out to be 0.296 ± 0.25. As for EAHNCFAIRHFENKFAVETLICFNLFLNSQEKHY, the figure is -0.359 ± 0.39; as for EAVNCFAIRHFENKFAVETLICFNLFLNSQEKHY, -0.392 ± 0.16; as for EADNCFAIRHFENKFAVETLICFNLFLNSQEKHY, 0.481 ± 0.22. The result for EAQNCFAIRHFENKFAVETLICFNLFLNSQEKHY reads -0.501 ± 0.37. As for EAWNCFAIRHFENKFAVETLICFNLFLNSQEKHY, the figure is -0.398 ± 0.25; as for EANNCFAIRHFENKFAVETLICFNLFLNSQEKHY, 0.0448 ± 0.23; as for EAPNCFAIRHFENKFAVETLICFNLFLNSQEKHY, 0.338 ± 0.36. On to EASNCFADRHFENKFAVETLICFNLFLNSQEKHY, for which the amyloid nucleation score is 0.678 ± 0.15. As for EASNCFACRHFENKFAVETLICFNLFLNSQEKHY, the figure is 0.524 ± 0.14; as for EASNCFAMRHFENKFAVETLICFNLFLNSQEKHY, 0.354 ± 0.15; as for EASNCFAGRHFENKFAVETLICFNLFLNSQEKHY, 0.834 ± 0.11.

On to EASNCFALRHFENKFAVETLICFNLFLNSQEKHY, for which the amyloid nucleation score came out at 0.288 ± 0.099.

Consider EASNCFAHRHFENKFAVETLICFNLFLNSQEKHY, for which the amyloid nucleation score worked out at 0.873 ± 0.21. As for EASNCFAARHFENKFAVETLICFNLFLNSQEKHY, the figure is 0.49 ± 0.13; as for EASNCFAKRHFENKFAVETLICFNLFLNSQEKHY, 0.701 ± 0.17; as for EASNCFAERHFENKFAVETLICFNLFLNSQEKHY, 0.604 ± 0.17. As for EASNCFAFRHFENKFAVETLICFNLFLNSQEKHY, the figure is 0.15 ± 0.14; as for EASNCFANRHFENKFAVETLICFNLFLNSQEKHY, 0.497 ± 0.15. As for EASNCFIIRHFENKFAVETLICFNLFLNSQEKHY, the amyloid nucleation score was -0.415 ± 0.14. The result for EASNCFKIRHFENKFAVETLICFNLFLNSQEKHY reads 0.0182 ± 0.15.

In the case of EASNCFPIRHFENKFAVETLICFNLFLNSQEKHY, the amyloid nucleation score came out at 0.577 ± 0.12. The result for EASNCFMIRHFENKFAVETLICFNLFLNSQEKHY reads -0.0811 ± 0.16.
